According to PMC8985213:

Target: BamD_(R49C) (E. coli) (UniProt P0AC02)
Assay: cross-linking

## ^MBP−76EspP_(D1218C)
  percent crosslinked (plateau after oxidation with 4-DPS): 40%
  percent crosslinked spontaneously (Ox-, no oxidant): 10%
